Measurements taken from article PMC3324987 (Frontiers in Molecular Neuroscience, 2012).

What was measured:
apo-CaBP1 = experiment: ITC and HSQC of NSCaTE binding to apo-CaBP1; set-up: species or system human; settings: ITC and NMR, compared to Ca^2+-CaBP1
[1] = target: N-lobe of calmodulin (residues 1-77) (UniProt P0DP23 2-78); experiment: other fluorescence titration
[2] = target: C-lobe of calmodulin (residues 78-148) (UniProt P0DP23 79-149); experiment: other fluorescence titration

Molecule	binding to apo-CaBP1 (apo-CaBP1)	Ka [1] [M⁻¹]	Ka [2] [M⁻¹]
long NSCaTE peptide: biosynthetically produced N-terminal region of Cav1.2 (residues 1–68), expressed in E. coli	extremely weak		
long NSCaTE peptide, Cav1.2 N-terminal cytoplasmic region residues 1-68 (domain or fragment) MVNENTRMYIPEENHQGSNYGSPRPAHANMNANAAAGLAPEHIPTPGAALSWQAAIDAARQAKLMGSA		1.39e+06	232000
